Test results from patent publication US12604903B2 (priority 2019, dated 2026).

B1: TKPCQSDKDCKKFACRKPKVPKCINGFCKCVRAPKKVEPTKPCQSDKDCKKFACRKPKVPKCINGFCKCVR (protein)
chain: TKPCQSDKDCKKFACRKPKVPKCINGFCKCVRAPKKVEPTKPCQSDKDCKKFACRKPKVPKCINGFCKCVR
notes: two NCR13 monomers linked in tandem by the APKKVEP spacer peptide from MtDef5 defensin, 71 amino acids
- antifungal activity against A. brassicicola (in words) (Alternaria brassicicola): significantly more active
- Alternaria brassicicola MIC (Alternaria brassicicola; in vitro growth inhibition): 1.5 µM
- IC50 (Alternaria brassicicola; read-out: Alternaria brassicicola IC50, in vitro growth inhibition): 750 nM
- growth inhibition of P. capsici (in words) (Phytophthora capsici): inhibited the growth
- Phytophthora capsici MIC (Phytophthora capsici; in vitro growth inhibition): 3 µM
- IC50 (Phytophthora capsici; read-out: Phytophthora capsici IC50, in vitro growth inhibition): 1500 nM
